Laboratory results reported in patent publication US20200399314A1 (MEDIKINE, published 2020).
Bridge positions count the residues as written; N and C are the ends. Ends that are not written are not given here.

T1: human IL-2Rα subunit (human, UniProt P01589 22-213, limits assumed)
T1 construct: also called CD25
T1 sequence (looked up): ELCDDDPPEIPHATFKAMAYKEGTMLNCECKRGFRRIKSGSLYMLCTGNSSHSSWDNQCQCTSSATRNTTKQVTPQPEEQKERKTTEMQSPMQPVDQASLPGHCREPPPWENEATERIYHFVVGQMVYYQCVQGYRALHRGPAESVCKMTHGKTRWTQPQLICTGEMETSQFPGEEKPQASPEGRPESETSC


Molecular target: T1, human IL-2Rα subunit

IC50 [µM]	Binder
< 100	NTCKLFRSGNIWQCIF [SEQ ID NO 187]
< 100	SCTVRWDGDWWVCE [SEQ ID NO 170]
< 100	RGCTLAWEDSWVCIF (disulfide 3-13 (inferred)) [SEQ ID NO 162]
< 100	ASCSLVWQDSWVCIF [SEQ ID NO 164]
< 100	GCTLKWESPNWTCY [SEQ ID NO 169]
< 100	SACTPNWTGRWWECVF (disulfide 3-14 (inferred)) [SEQ ID NO 190]
< 100	GPCRLSNPGTGWECIF (disulfide 3-14 (inferred)) [SEQ ID NO 182]
< 100	SGCSLQWADGWVCIF (disulfide 3-13 (inferred)) [SEQ ID NO 157]
< 100	GCSLMWQDGWWVCI [SEQ ID NO 171]
< 100	SRCSLVWADSWVCIF [SEQ ID NO 165]
< 100	GCMLTRGKFWWECI [SEQ ID NO 173]
< 100	SKCHLIVSGKFHECVF [SEQ ID NO 191]
< 100	KGCTLQNPGSGWVCLF [SEQ ID NO 183]
< 100	AGCMLLKPGLYWECIF [SEQ ID NO 179]
< 100	ARCSLHHTGSRYECIF [SEQ ID NO 180]
< 100	QSCTLQRLGHLYQCWF [SEQ ID NO 189]
< 100	GCVLQFSGVWWECV (disulfide 2-13 (inferred)) [SEQ ID NO 174]
< 100	PSCRLWNPGFGWECIF [SEQ ID NO 188]
< 100	ATCMLRLLGDGWGCVF [SEQ ID NO 181]
< 100	QRCQLSWSGGELGCMF (disulfide 3-14 (inferred)) [SEQ ID NO 178]
< 100	RGCSLRFAEAWECIF [SEQ ID NO 163]
< 100	GCTLSWNQGWWHCV [SEQ ID NO 172]
< 100	LACILSKPGEHWECLF [SEQ ID NO 184]
< 100	NSCILSNPGLGWQCVF [SEQ ID NO 186]
< 100	RGCSLVWAGSWECIF [SEQ ID NO 159]
< 100	RRCTLVFLDSWECIF (disulfide 3-13 (inferred)) [SEQ ID NO 161]
< 100	GRCHLVWSDRWECIF [SEQ ID NO 166]
< 100	SRCSLVWAENWVCIF [SEQ ID NO 160]
< 100	NGCTLSFSGMSWTCVY (disulfide 3-14 (inferred)) [SEQ ID NO 185]
< 100	ARCSLVWDEAWVCIF [SEQ ID NO 158]

Further lines, the binder ahead of its results:

Binder	IC50 [µM]
RGCMLRLQPELACVF [SEQ ID NO 147]	< 100
SRCSLVWTDTWVCVF [SEQ ID NO 152]	< 100
TRWCSLHPGVGECVTL [SEQ ID NO 137]	< 100
VGCSLVWTDRWECIF (disulfide 3-13 (inferred)) [SEQ ID NO 156]	< 100
FIPWEEYFSQLL [SEQ ID NO 13]	< 100
FIPWPEYFSQLL [SEQ ID NO 14]	< 100
WLPCDDYPGHGYCYSR (disulfide 4-13 (inferred)) [SEQ ID NO 140]	< 100
TTVCDYHPGSRYCINE [SEQ ID NO 138]	< 100
NHCTLSKTYPWVCVF (disulfide 3-13 (inferred)) [SEQ ID NO 145]	< 100
YASCTYLPGHRGCTLV [SEQ ID NO 139]	< 100
QACQLVWLDSWVCIF [SEQ ID NO 155]	< 100
SRCTLVFDDSWVCVF [SEQ ID NO 153]	< 100
TRMCFDDPGWHSCPVV [SEQ ID NO 136]	< 100
FVPWDEYFLQIL [SEQ ID NO 15]	< 100
SACQLKWDEGWTCLF [SEQ ID NO 144]	< 100
RQFCLVSPGYEDCWFV [SEQ ID NO 135]	< 100
GGCSLVWADSWVCIF [SEQ ID NO 148]	< 100
QRCNRSLLDALICQA [SEQ ID NO 146]	< 100
RGCSLVWSGSWECIF [SEQ ID NO 154]	< 100
FIPWDEYFKQVL [SEQ ID NO 11]	< 100
FVPWPEYFLQIM [SEQ ID NO 12]	< 100
